B1: Receptor-type tyrosine-protein phosphatase T (Homo sapiens), O14522-1 (parent)
chain: MASLAALALSLLLRLQLPPLPGARAQSAAGGCSFDEHYSNCGYSVALGTNGFTWEQINTWEKPMLDQAVPTGSFMMVNSSGRASGQKAHLLLPTLKENDTHCIDFHYYFSSRDRSSPGALNVYVKVNGGPQGNPVWNVSGVVTEGWVKAELAISTFWPHFYQVIFESVSLKGHPGYIAVDEVRVLAHPCRKAPHFLRLQNVEVNVGQNATFQCIAGGKWSQHDKLWLQQWNGRDTALMVTRVVNHRRFSATVSVADTAQRSVSKYRCVIRSDGGSGVSNYAELIVKEPPTPIAPPELLAVGATYLWIKPNANSIIGDGPIILKEVEYRTTTGTWAETHIVDSPNYKLWHLDPDVEYEIRVLLTRPGEGGTGPPGPPLTTRTKCADPVHGPQNVEIVDIRARQLTLQWEPFGYAVTRCHSYNLTVQYQYVFNQQQYEAEEVIQTSSHYTLRGLRPFMTIRLRLLLSNPEGRMESEELVVQTEEDVPGAVPLESIQGGPFEEKIYIQWKPPNETNGVITLYEINYKAVGSLDPSADLSSQRGKVFKLRNETHHLFVGLYPGTTYSFTIKASTAKGFGPPVTTRIATKISAPSMPEYDTDTPLNETDTTITVMLKPAQSRGAPVSVYQLVVKEERLQKSRRAADIIECFSVPVSYRNASSLDSLHYFAAELKPANLPVTQPFTVGDNKTYNGYWNPPLSPLKSYSIYFQALSKANGETKINCVRLATKAPMGSAQVTPGTPLCLLTTGASTQNSNTVEPEKQVDNTVKMAGVIAGLLMFIIILLGVMLTIKRRRNAYSYSYYLSQRKLAKKQKETQSGAQREMGPVASADKPTTKLSASRNDEGFSSSSQDVNGFTDGSRGELSQPTLTIQTHPYRTCDPVEMSYPRDQFQPAIRVADLLQHITQMKRGQGYGFKEEYEALPEGQTASWDTAKEDENRNKNRYGNIISYDHSRVRLLVLDGDPHSDYINANYIDGYHRPRHYIATQGPMQETVKDFWRMIWQENSASIVMVTNLVEVGRVKCVRYWPDDTEVYGDIKVTLIETEPLAEYVIRTFTVQKKGYHEIRELRLFHFTSWPDHGVPCYATGLLGFVRQVKFLNPPEAGPIVVHCSAGAGRTGCFIAIDTMLDMAENEGVVDIFNCVRELRAQRVNLVQTEEQYVFVHDAILEACLCGNTAIPVCEFRSLYYNISRLDPQTNSSQIKDEFQTLNIVTPRVRPEDCSIGLLPRNHDKNRSMDVLPLDRCLPFLISVDGESSNYINAALMDSHKQPAAFVVTQHPLPNTVADFWRLVFDYNCSSVVMLNEMDTAQFCMQYWPEKTSGCYGPIQVEFVSADIDEDIIHRIFRICNMARPQDGYRIVQHLQYIGWPAYRDTPPSKRSLLKVVRRLEKWQEQYDGREGRTVVHCLNGGGRSGTFCAICSVCEMIQQQNIIDVFHIVKTLRNNKSNMVETLEQYKFVYEVALEYLSSF

Variants of: B1
Conditions: with paxi_human PXN

| effect of a mutation on the interaction | Variant |
| --- | --- |
| increasing interaction | D1074A;C1106S |
| increasing interaction | D1074A |

— IntAct's records for PubMed 20133777
